Two substances from paper PMC9974832 can be followed below.

Where “and” joins values, the source holds several entries; their conditions need not be identical. Identical values can stand only once.

Assay [1] deals with pyruvate kinase (PK) M2 (PKM2) (mouse) (mouse (endogenous in isolated glomeruli)) (UniProt P52480). Kind of assay: cross-linking; lysates of mouse glomeruli or HRMCs (sodium phosphate buffer pH 7.3, 0.5% Triton X-100), 0.01% glutaraldehyde 5 min 37°C, stopped with 50 mM Tris-Cl pH 8.0; 10% SDS-PAGE, blot with anti-PKM2; samples from db/m, db/db, AAV-shARAP1 mice; NG/HG, ARAP1 shRNA, ARAP1 overexpression, AG1478 in cells.

Assay [2] concerns the target pyruvate kinase (PK) M2 (PKM2) (human (endogenous in HRMCs)) (UniProt P14618). The description is as above.

Usually stoichiometry N stands for a count of units in the complex or per binding partner.

Chain of pyruvate kinase (PK) M2 (PKM2) (mouse), P52480 1-531 (enzyme; other documents disagree on this pair) (P52480 whole entry): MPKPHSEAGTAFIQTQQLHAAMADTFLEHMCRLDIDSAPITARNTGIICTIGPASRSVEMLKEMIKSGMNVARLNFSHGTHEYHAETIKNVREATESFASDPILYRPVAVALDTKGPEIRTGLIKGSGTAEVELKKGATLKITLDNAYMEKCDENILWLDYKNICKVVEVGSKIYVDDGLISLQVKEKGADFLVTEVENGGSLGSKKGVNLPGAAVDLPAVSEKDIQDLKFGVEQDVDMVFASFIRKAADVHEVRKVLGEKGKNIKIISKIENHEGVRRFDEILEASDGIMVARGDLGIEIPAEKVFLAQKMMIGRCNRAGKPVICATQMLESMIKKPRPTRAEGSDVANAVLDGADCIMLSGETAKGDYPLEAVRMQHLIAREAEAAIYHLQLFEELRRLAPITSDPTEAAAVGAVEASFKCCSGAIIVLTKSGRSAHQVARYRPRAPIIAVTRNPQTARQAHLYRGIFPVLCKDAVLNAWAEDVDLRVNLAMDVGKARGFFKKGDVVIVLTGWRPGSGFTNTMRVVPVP
Chain of pyruvate kinase (PK) M2 (PKM2), P14618 1-531 (enzyme; other documents disagree on this pair) (P14618 whole entry): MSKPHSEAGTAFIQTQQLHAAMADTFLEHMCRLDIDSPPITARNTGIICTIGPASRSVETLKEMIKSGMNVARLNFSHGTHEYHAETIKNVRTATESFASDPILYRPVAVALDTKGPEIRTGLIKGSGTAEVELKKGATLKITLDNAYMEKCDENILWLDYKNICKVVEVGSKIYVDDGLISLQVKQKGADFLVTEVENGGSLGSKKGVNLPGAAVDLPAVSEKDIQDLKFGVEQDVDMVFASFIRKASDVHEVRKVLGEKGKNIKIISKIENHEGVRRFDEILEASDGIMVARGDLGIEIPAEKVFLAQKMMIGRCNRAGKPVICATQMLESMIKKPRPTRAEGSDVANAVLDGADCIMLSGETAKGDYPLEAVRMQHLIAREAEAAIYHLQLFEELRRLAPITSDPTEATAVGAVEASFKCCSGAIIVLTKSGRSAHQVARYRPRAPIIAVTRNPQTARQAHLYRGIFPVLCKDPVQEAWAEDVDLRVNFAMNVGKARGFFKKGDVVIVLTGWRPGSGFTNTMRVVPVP

Regarding “pyruvate kinase (PK) M2 (PKM2) (mouse), P52480 1-531 (enzyme; other documents disagree on this pair)”, the stoichiometry N in assay [1] was 2 and 4.
As for “pyruvate kinase (PK) M2 (PKM2), P14618 1-531 (enzyme; other documents disagree on this pair)”, the stoichiometry N in assay [2] was determined as 2.
